Experimental data reported in patent US20180086849A1 (Hoffmann-La Roche, published 2018).

T1: human CEA (Carcinoembryonic antigen) on cells (human, UniProt P06731 35-685)
T1 sequence (looked up): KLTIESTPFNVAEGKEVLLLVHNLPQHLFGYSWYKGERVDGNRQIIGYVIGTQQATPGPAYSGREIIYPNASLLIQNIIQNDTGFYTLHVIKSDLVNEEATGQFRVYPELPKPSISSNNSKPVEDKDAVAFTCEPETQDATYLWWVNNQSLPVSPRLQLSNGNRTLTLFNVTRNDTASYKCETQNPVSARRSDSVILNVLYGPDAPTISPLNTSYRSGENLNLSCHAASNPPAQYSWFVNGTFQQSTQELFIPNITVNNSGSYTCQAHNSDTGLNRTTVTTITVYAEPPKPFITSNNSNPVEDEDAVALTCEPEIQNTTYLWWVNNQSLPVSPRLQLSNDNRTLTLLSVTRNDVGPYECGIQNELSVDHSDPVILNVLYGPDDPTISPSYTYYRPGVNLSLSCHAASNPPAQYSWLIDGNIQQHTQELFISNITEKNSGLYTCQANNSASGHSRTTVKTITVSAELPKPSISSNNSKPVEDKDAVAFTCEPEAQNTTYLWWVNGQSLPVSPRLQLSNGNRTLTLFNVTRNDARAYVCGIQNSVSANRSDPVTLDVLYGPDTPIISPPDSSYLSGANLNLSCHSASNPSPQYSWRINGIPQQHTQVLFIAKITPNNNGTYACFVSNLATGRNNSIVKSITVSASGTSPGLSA

B1: 2+1 IgG Crossfab, inverted; CL/CH1 exchange (CH1A1A/V9), anti-CEA/anti-huCD3 (bispecific antibody)
chain 1: QVQLVQSGAEVKKPGASVKVSCKASGYTFTEFGMNWVRQAPGQGLEWMGWINTKTGEATYVEEFKGRVTFTTDTSTSTAYMELRSLRSDDTAVYYCARWDFAYYVEAMDYWGQGTTVTVSSASTKGPSVFPLAPSSKSTSGGTAALGCLVKDYFPEPVTVSWNSGALTSGVHTFPAVLQSSGLYSLSSVVTVPSSSLGTQTYICNVNHKPSNTKVDKKVEPKSCDKTHTCPPCPAPEAAGGPSVFLFPPKPKDTLMISRTPEVTCVVVDVSHEDPEVKFNWYVDGVEVHNAKTKPREEQYNSTYRVVSVLTVLHQDWLNGKEYKCKVSNKALGAPIEKTISKAKGQPREPQVCTLPPSRDELTKNQVSLSCAVKGFYPSDIAVEWESNGQPENNYKTTPPVLDSDGSFFLVSKLTVDKSRWQQGNVFSCSVMHEALHNHYTQKSLSLSPGK
chain 2: DIQMTQSPSSLSASVGDRVTITCKASAAVGTYVAWYQQKPGKAPKLLIYSASYRKRGVPSRFSGSGSGTDFTLTISSLQPEDFATYYCHQYYTYPLFTFGQGTKLEIKRTVAAPSVFIFPPSDEQLKSGTASVVCLLNNFYPREAKVQWKVDNALQSGNSQESVTEQDSKDSTYSLSSTLTLSKADYEKHKVYACEVTHQGLSSPVTKSFNRGEC
chain 3: DIQMTQSPSSLSASVGDRVTITCRASQDIRNYLNWYQQKPGKAPKLLIYYTSRLESGVPSRFSGSGSGTDYTLTISSLQPEDFATYYCQQGNTLPWTFGQGTKVEIKSSASTKGPSVFPLAPSSKSTSGGTAALGCLVKDYFPEPVTVSWNSGALTSGVHTFPAVLQSSGLYSLSSVVTVPSSSLGTQTYICNVNHKPSNTKVDKKVEPKSC
chain 4: not shown
B2: 1+1 IgG-Crossfab light chain fusion (CH1A1A/V9), anti-CEA/anti-huCD3 (bispecific antibody)
chain 1: B1 chain 3
chain 2: DIQMTQSPSSLSASVGDRVTITCKASAAVGTYVAWYQQKPGKAPKLLIYSASYRKRGVPSRFSGSGSGTDFTLTISSLQPEDFATYYCHQYYTYPLFTFGQGTKLEIKRTVAAPSVFIFPPSDEQLKSGTASVVCLLNNFYPREAKVQWKVDNALQSGNSQESVTEQDSKDSTYSLSSTLTLSKADYEKHKVYACEVTHQGLSSPVTKSFNRGECGGGGSGGGGSGGGGSGGGGSEVQLVESGGGLVQPGGSLRLSCAASGYSFTGYTMNWVRQAPGKGLEWVALINPYKGVSTYNQKFKDRFTISVDKSKNTAYLQMNSLRAEDTAVYYCARSGYYGDSDWYFDVWGQGTLVTVSSASVAAPSVFIFPPSDEQLKSGTASVVCLLNNFYPREAKVQWKVDNALQSGNSQESVTEQDSKDSTYSLSSTLTLSKADYEKHKVYACEVTHQGLSSPVTKSFNRGEC
chain 3: not shown
chain 4: DKTHTCPPCPAPEAAGGPSVFLFPPKPKDTLMISRTPEVTCVVVDVSHEDPEVKFNWYVDGVEVHNAKTKPREEQYNSTYRVVSVLTVLHQDWLNGKEYKCKVSNKALGAPIEKTISKAKGQPREPQVCTLPPSRDELTKNQVSLSCAVKGFYPSDIAVEWESNGQPENNYKTTPPVLDSDGSFFLVSKLTVDKSRWQQGNVFSCSVMHEALHNHYTQKSLSLSPGK

Target: T1, human CEA (Carcinoembryonic antigen) on …
Assay: cell-based or functional assay

| Binder | EC50 of T cell-mediated killing (LDH release) of LS-174T cells, human PBMCs, 28 h [nM] | EC50 of T cell-mediated killing (LDH release) of MKN-45 cells, human PBMCs, 28 h [nM] | EC50 of T cell-mediated killing (LDH release) of MC38-huCEA cells, human PBMCs, 24 h [nM] |
| --- | --- | --- | --- |
| B1 | 0.673 | 0.115 |  |
| B2 | 1.56 | 0.213 | ~3.2 |
